Results on 15 sequences are retold here after a protein production outcome set (Wang et al. 2014).

A short description of the series: label from the status in PepcDB records.
Consider “MMTITTDRTPPAAGAALDRNRSAYAGLADVLERAGLAEHALYLNWGYRPVDGQPDWAARELPPGELGRMQARLVLEVLGDTPLDGRRVLDVGCGRGGALALMGRLHAPAALAGADISAANIAYCRKRHTHPRLRFQIADACRLPYPDSSMDVVFNLESSGAYPDIGAFFHHVHRILRVGGRFCLADVFDADSVAWVRAALEQAGFTLERERSIPAQVRAARERASPGIWRRLDTALTALDAPGLRRELERYLAAPSSGLFQALEDGRVDYRLFHWRKTCPAAGRIDADVIARLATRSARLDAALQDRAPSAAAPQSPAPGPANASASAWFPFTAPDAQAGFNVFALPYAGGGASVYRAWTLPRRPGAAPWQLCPVQLPGRESRFGEPLIDDMATLADRLADAIGPYAHRPWALLGCSLGCKIAFEVARRFARQGRPPALLFLMACPAPGLPLGRRISTRAEADFAREVCHLGGTPPEVLADAEMMRTLMPILRNDSALAEHYVAAEDATVNVPIVMVAAGDDHLVTVEEARRWQRHAGAGFDWRLVDGGHFFLRQRRRELTDWLLDALRRGERTLPVQTTTTDVPDVPCSTPEQPRDPSRMPAPGASANLVLAPGEILVVTAPRSLAARLTPAVLSDDEQRQLARFAFDADRERYLAAHWAKRRVLGALLAAAPRSLRFGAQAGGKPYLIGEALHFSLSHSGDRVAVAVCRHAPVGVDIEQARGIACHASAARIMHPLDRIAPQCETPEDRFLAAWSLKEAVAKCTGAGLALPFDSLRLAFAGNGRYGCLLGTHAAWEAHHQHEDGVHLAVASATPWAALRILPLDAALAEG”, for which the protein production result is on record as “failed”.

Consider “MMTPSRAEKSLTIVIPALNEQDKIADTIDGVLPLARELLDDFEIFLIDDGSTDATGAIMNEFAASDRRITVHHNAERRGVGAGFEYALSRAKFDAITLIPGDHAFQNEGIARMFKAVGAADMVITYRDNQSDRSVNRSIQSHSLRFVLNCMFGFWLSDYHSMIVYPVKWLRQIAVRADGYGYQICALISLLQLGLTYVQVPVSLNAELKGSSRALRLRTYLELIGTIVSLLRRVPIRDVDRDQVPVDAGRTPAR”, for which the protein production entry was “failed”.

In the case of “MMTTAEQIPFQLILNSGNARSFAMEALQFAKQGKMAEADEAMVKAKEAINEAHHFQTELIQSEARGEKTEISVLLIHAQDHLMNAITVKELAAEFIDLYKKLEAKGE”, the protein production result is listed as “not failed”.

“MMTVVKGLVTFRPMFALVLLSALVGCASAPKKAPPPSSFDATMSRAEAEVTNGGPEQALKTFEDAGRADPTRKEPWVRIAQLQFDRANYARAIVAAQEVLQRDPNDLVADGVLTVAGFRIANQSLQRLQGRGALVSGTARKEAEMLASTLRATMGDDILQPDEPKKRKPVRNARRAAPPAAKDAAPPKQTPNASADPFQNLGGN”: the protein production entry is reported as “failed”.

Take “MMYFGIIPLILFIIFLISYLKDPRKIINGFLFNAFICFFLLFCVIVSLNSDSDVLRYIIFLPFLALLIMLPFGIVALMFGLFLNARILMKREGRRFTNCLTLLAALGMLFFMLLPIINPASLVSSHLEPIFAAISLISIYFFIHLSNFLSAYFLYQFNRPRRNQDFIIVLGSGLINDKVPPLLASRINKAIDFYWKQAAVNTPPTIIFSGGQGPDEGLPEAEAMQNYAVEKGIPIEHTVQENRSVNTYQNMLFSKEIMDSLKPEGKYKSIFTTNNFHLFRAGIYARQAGLNSQGIGSKTAFYYWPNAMIREYVAIVVMGRKRHMKICGTILGFAVFVSILSFIFS”: the protein production entry was “failed”.

With “MNAADRVMQSYGRCCASTGFFDDFYRHFLASSPQIRAKFATTDMTAQKHLLRAGIMNLVMYARGMSDSKLRALGASHSRAALDIRPELYDLWLDALLMAVAEHDRDCDAETRDAWRDVMGRGIAVIKSYY”, the protein production result is listed as “not failed”.

As to “MNADTAIRIIEPPPSRGQLLYDGIRSLRKPKPDAAPQLPTERLVRPAVELKADEIARYARACGFRREHGVPLAFPHTLAFPLHLLLLTRPTFPYPASGMVHLANRIRQYQRLEEGQALRLEVFAERWLAHPKGQALSIATRAHSGGSLVWESDSLYLRRGVAGPIGEPWEGSLQWDEQALVRTQRWSLGGDLGRRFAQVSGDFNPIHTSWLGARLFGFRRPIAHGMWTLGRALAAQQPPHPLAAAQLDCEFKLPIFLPAAVTLWNRLPDGPRHEFEVRNNAGDKPHMRGLFIWGAR”, the protein production entry is on record as “failed”.

As to “MNAGHLKEAAALYAEIVALNPGWEHGTALYSLACCYEDLGELTSAEECYRRALSYEPESPTFIGGLASFLHLHGSQS”, the protein production entry was “failed”.

For “MNAIWIAVAAVSLLGLAFGAILGYASRRFAVEDDPVVEKIDEILPQSQCGQCGYPGCRPYAEAISCNGEKINRCAPGGEAVMLKIAELLNVEPQPLDGEAQEITPARMVAVIDENNCIGCTKCIQACPVDAIVGATRAMHTVMSDLCTGCNLCVDPCPTHCISLQPVAETPDSWKWDLNTIPVRIIPVEHHA”, the protein production result is listed as “failed”.

On to “MNAKLEVNGELVKESYVYLLSRYLVLRQENFDTKEDKIPYNTLKHNSVAPADANFVNPNFDVVYSEAWIAVDDDNAVILEVPEIKNRYYTVQLLDGWGEVVTNINERNYPDHPYGKFAFVKKGTNPSVPSDAVKIELPSEKVKVLLRVEQKDDPEGAVKLQKAFKFDAPDNIKIKEPLEIPHFTNADFLLEEIYSNLEELLATYPDKMPKAAEFQDKARQVAAYIELGDEQKAEVRNLIVKEAIPYFTDGAKGFGTQKGGWSVTYVAGAFENDILARAIINYGGIWANSIQEALYFIGQQGTDGELLSGDKVYKIHFPKDQLPNGLAEAFWSVTLYGVPDYHVIPNKLNKFSINDYTGPKTNEDGSLSLYIAAEKPADVDPGNWLPSKAGKGFSLNFRLYVPKKEVLEGKVFLPPLEVL”, for which the protein production result is “failed”.

In the case of “MNALARLRGRKVVPQRSDGELDAMAAAGAVVAAALQAVRAAAVAGVSTLSLDQIAESVIRDAGAVPSFLGYHGYPASICASVNDRVVHGIPSAAEVLAPGDLVSIDCGAVLDGWHGDAAITFGVGALDPADEALCQGTRESLEAGIAAMVPGNRLTDVSHAIELGTRAAETRHGRAFGIVEGYGGHGIGRQMHMDPFLPNEGSPGRGPLLAPGSVLAIEPMLTLGTGKTVVLDDQWTVITTDGSRAAHWEHTVAVTDAGPRILTIG”, the protein production entry was “failed”.

For “MNALPSSAEFSRAVGGDAVSREAVIRIEHLSKTFSDAAGPVLDDVSLTIRRGEIHGIIGRSGAGKSTLVRCINLLERPSAGRVIVSGREITSLRGRALRNARRDIGMIFQHFNVLSSHTVAGNVALPFKVAGLPRAEIARRIPPLLELVGLAHKADAYPSELSGGQKQRVGIARALALDPSVLLCDEATSALDPETTDQILALLRDINRKLGLTIVLITHEMHVVRDIATRVAVLDHGRVVEEGATFDVLAFPKSAVARSFLSGLVAHELPPPVAAQLLPAAVPGSDPVLRIVFTGTAAHDPIVADLVSVFGIQPNILHGRIDYVGDRPLGVLTLVAGGAGEKLPAVLSHLSSLGLVVEVIGHAVRSAVARRHSAARLEHHHHHH”, the protein production result is reported as “failed”.

As to “MNALRKVGAVAWAAVGSLLLSGCEFNGWYDVQLPGGAAADGHAYHVTVEFRDVLDLVPQSAVKVNNVTVGAVEEVQLDGWHARVRLRVADSVKLPANAVAELRQTSMLGEKYVALSTPPGTAPVGRLGDGDRIPLSRSGRNPDIEEVLSALSALLNGGGVAQLKTITVELNKALDGREDRVRSLLKELNTFIGGLDGRRKDIIHALKAVDRLAGRLGKEKKTIAQAVDTMPPALKVLADQRRDLTRMLTALSKLGTTGTKVVNASHDDTVANLKQLRPILQQLNKAGADLPNSLELLTTYPFPRNAVDAVRGDYVNLDITADLDLSALYRNLAGGSDKSGGGNGESTQPETPDIPDLPDLPTVPTPTALPSAPSLPSSPSMPSAPSGGGGPLCPPVCTSSYTTRGEPPEGIDLALAELMLKGVQP”, the protein production result is given as “failed”.

Consider “MNANENVSDDRFAEMVWEAVSGGATLKDVHGIPQDMMEGLYAHAYDFYHKGRLDEAETFFRFLCIYDFYNPDYIMGLAAVCQLKKQFQKAVDLYAVAFALSKNDYRPVFFTGQCQLFMRKAAKARQCFELVCEQSGDESLRDKAQVYLDSLQEAEAEQSRQQEKEQA”, for which the protein production result was “failed”.

In the case of “MNAPLSHSRPMMQPSEDKSLATVFPFAGRVLDETPMLLGEGPTFDPASGTAWWFNILERELHELHLASGRKTVHALPFMGSALAKISDSKQLIASDDGLFLRDTATGVLTLHAELESDLPGNRSNDGRMHPSGALWIGTMGRKAETGAGSIYHVAKGKVTKLFADISIPNSICFSPDGTTGYFVDTKVNRLMRVPLDARTGLPTGKAEVFIDSTGIKGGMDGSVCDAEGHIWNARWGEGAVDRYDTDGNHIARYEVPGKQTTCPAFIGPDASRLLVTSAREHLDDDAITANPQHGLTFELGIEVKGRFEPLYRL”, the protein production result is “not failed”.
